Measured values from publication PMC10816834, “Role of the C-Terminal β Sandwich of Thermoanaerobacter tengcongensis Thermophilic Esterase in Hydrolysis of Long-Chain Acyl Substrates” (International Journal of Molecular Sciences, 2024).

Tests used:
Conditions in all cases: 50 °C, 50 mM sodium phosphate pH 7.4 (also Tris-HCl pH 8.5), 5 μM enzyme, 1-20 mM substrate
[1] = test system: T1, EstA3_Bb (naturally shorter B. brevis esterase); assay: p-nitrophenol release at […] nm, Lineweaver-Burk; format: biochemical, Brevibacillus brevis
T1 construct: gene EstA3.bb; full-length natural enzyme lacking the C-terminal tail, 6xHis-tag (pET28a, plasmid pFEM170), codon-optimised synthetic gene, E. coli BL21(DE3) pLysS, Ni-NTA; calculated mass 35,243

[2] = substrate: CCCC(=O)Oc1ccc([N+](=O)[O-])cc1; assay: purified protein; format: biochemical, Caldanaerobacter subterraneus
[3] = substrate: CCCCCCCC(=O)Oc1ccc([N+](=O)[O-])cc1; assay: purified protein; format: biochemical, Caldanaerobacter subterraneus

Molecule CCCC(=O)Oc1ccc([N+](=O)[O-])cc1 [pNPC4, p-nitrophenyl butyrate] has a Km ([1]; table value, text b31 prints 0.53 mM) of 590 µM.

For CCCCCCCC(=O)Oc1ccc([N+](=O)[O-])cc1 [pNPC8, p-nitrophenyl caprylate], the Km [1] was 510 µM.

B1: EstA3_TtΔ (truncated T. tengcongensis esterase) (Caldanaerobacter subterraneus subsp. tengcongensis MB4) (protein)
chain: MNNPVVFLHGIFGSIFTPTPLGKIWSFGPAANIYAPFIEDLQKIGLVENKNLFVCYYEWWRKIPDAVDKLILAIEEAKAKTGSSKVDLVCHSMGGLLARSYLQSDKYQFDVDKLILLGTPNLGAANAYYGWEGGTVPPDDEDFVNMLFRGFLWIFSKIKGEKDAVTVIRKYIPSIKDLMPSKEYGSYLFMYPVRYEKILFKNIEYMKVINDFLNDLNEKADILYERVRSVYLFAGEGVYTNKFIQVEKSESEVVWPDGKPVGVIRDDKGDGTVLTKSALGINGEEIVLKSSHIGILKDSVSYLGEILG
notes: catalytic domain; 6xHis-tag (pET28a, plasmid pFEM103), E. coli BL21(DE3) pLysS, Ni-NTA; calculated mass 34,719
B1 showed a Km [2] of 640 µM and a Km [3] of 560 µM.

B2: EstA3_Tt (wild-type T. tengcongensis esterase EstA3, LipA3) (Caldanaerobacter subterraneus subsp. tengcongensis MB4) (protein)
chain: MNNPVVFLHGIFGSIFTPTPLGKIWSFGPAANIYAPFIEDLQKIGLVENKNLFVCYYEWWRKIPDAVDKLILAIEEAKAKTGSSKVDLVCHSMGGLLARSYLQSDKYQFDVDKLILLGTPNLGAANAYYGWEGGTVPPDDEDFVNMLFRGFLWIFSKIKGEKDAVTVIRKYIPSIKDLMPSKEYGSYLFMYPVRYEKILFKNIEYMKVINDFLNDLNEKADILYERVRSVYLFAGEGVYTNKFIQVEKSESEVVWPDGKPVGVIRDDKGDGTVLTKSALGINGEEIVLKSSHIGILKDSVSYLGEILGIREKPSISLLEKAISYLSIITDKKIVVLDRSKKIKTYDVFGKYNWHVCFEPEGVYKISIKEPGMSEFYIETNKKTVEKKFKSSRLSRGAEFTLEVDEEGNFKMRDG
notes: full length, 6xHis-tag (pET28a, plasmid pFEM45), codon-optimised synthetic gene, E. coli BL21(DE3) pLysS, Ni-NTA; calculated mass 47,078
B2 showed a Km [2] of 530 µM and a Km ([3]; listed as label shifted in table, assigned by text b31) of 490 µM.
